Test results: article PMC12109034

B1: GST::At-I2 (natural protein)
chain: MTEPKRGRVQWDEANIVEIESNKPVRQKITEPKTPYHPMMDDDGSLSPRGRAFDECVDDMQRAEELRNVLNDAAASSSRNSSQGSGGGGWSSSDEEEEEADPMDQDEEGSGSGKNERFNAHRKAHYDEFRKVKELRSSGSFYEEEEEEDDGAKGSKSETTTNSRHTKGGNKELDATKTVSGTSSSSSPELI

What was measured:
[1] = target: 6xHis::TdPP1a (durum wheat)
[2] = target: TdPP1-H135A (durum wheat)
[3] = target: 6xHis::TdPP1a (durum wheat); remark: listed apart in the source
[4] = target: TdPP1-H135A (durum wheat); remark: listed apart in the source
[5] = target: TdPP1-T243M (durum wheat)
[6] = target: TdPP1-H135A (durum wheat); remark: listed apart in the source

Row | Molecule | percent inhibition of phosphatase activity (pNPP) at three TdRL1 concentrations; 59% at 26 nM (1:1 molar ratio), highest value at the higher concentration [1] [%] | percent inhibition of phosphatase activity (pNPP) by TdRL1 at three concentrations; value at high concentrations [2] [%] | IC50 of inhibition of phosphatase activity (pNPP substrate, 37 °C, 1 μg enzyme) [3] [nM] | IC50 of inhibition of phosphatase activity (pNPP substrate, 37 °C, 1 μg enzyme) [4] [nM] | IC50 of inhibition of phosphatase activity (pNPP substrate, 37 °C, 1 μg enzyme) [5] [nM] | percent inhibition of phosphatase activity (pNPP) at three At-I2 concentrations; maximum at the highest concentration used [1] [%] | percent inhibition of phosphatase activity (pNPP) by At-I2 at three concentrations; highest at high concentration [6] [%]
1 | 6xHis-MBP::TdRL1 (natural protein) | 89.7 | 91 | 32 | 37 | 35.6 | – | –
2 | B1 | – | – | – | – | – | 90.4 | 100
